Reference: US20180298097A1

Assays:
CHO-huTIM3 = CHO-huTIM3 (UniProt Q8TDQ0); test: FACS binding, CHO-huTIM3 transfectant; isotype control
mouse TIM3 (mouse) [1] = target: mouse TIM3 (mouse) (UniProt Q8VIM0); test: binding to activated mouse T cells; method not described
mouse TIM3 (mouse) [2] = target: mouse TIM3 (mouse) (UniProt Q8VIM0); test: binding to activated mouse T cells, compared with TIM3.18 binding to human TIM-3

Sequence of mouse TIM3 (mouse) (Q8VIM0 20-281): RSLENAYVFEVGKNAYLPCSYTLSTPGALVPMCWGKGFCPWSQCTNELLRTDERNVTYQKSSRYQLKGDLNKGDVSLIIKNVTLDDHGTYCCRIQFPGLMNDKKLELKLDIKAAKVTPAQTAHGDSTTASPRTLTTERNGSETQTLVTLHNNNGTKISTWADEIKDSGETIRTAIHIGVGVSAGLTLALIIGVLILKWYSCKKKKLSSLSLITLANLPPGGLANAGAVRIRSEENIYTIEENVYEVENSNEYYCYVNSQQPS

Substance	EC50 (CHO-huTIM3) [mg/mL]	EC50 (mouse TIM3 (mouse) [1]) [nM]	fold weaker EC50 than TIM3.18 on human TIM-3 (mouse TIM3 (mouse) [2]) [fold]
hIgG2	42.3		
hIgG4	29.3		
rat anti-mouse TIM-3 antibody RMT3-23 (Bio-X-Cell)		1.7	17
